Holding throughout (test): ITC; VP-ITC, 318.15 K; Doc in the cell, Coh injected (28 x 10 uL); single site-binding model; proteins in 50 mM HEPES pH 7.5, 2 mM CaCl2, 0.5 mM TCEP
(Isothermal titration calorimetry measures the heat released or taken up as one component is titrated into another.)

Experiment [1] concerns the target C. thermocellum CipB XDoc F148A (Clostridium thermocellum).
The target of experiment [2] is C. thermocellum CipB XDoc M118A (Clostridium thermocellum).
Experiment [3] has as its target C. thermocellum CipB XDoc (X-module and type-II dockerin of CipB), expressed on its own (Clostridium thermocellum) (UniProt A3DGE8).
Experiment [4] has as its target C. thermocellum CipB XDoc M114A (Clostridium thermocellum).
Experiment [5] addresses C. thermocellum CipB XDoc S121A (Clostridium thermocellum).
Experiment [6] deals with C. thermocellum CipB XDoc I154A (Clostridium thermocellum).
The target of experiment [7] is T1, C. thermocellum ScaF Coh (type-II cohesin of anchoring scaffoldin ScaF), expressed on its own (Clostridium thermocellum, UniProt P71143 29-200).
T1 construct: single type-II cohesin of anchoring scaffoldin ScaF of Clostridium thermocellum (the Coh of PDB 2b59 and 2bm3); also called CohScaF; source: E. coli BL21 (DE3), pET28a, purified (IMAC)
T1 sequence (looked up): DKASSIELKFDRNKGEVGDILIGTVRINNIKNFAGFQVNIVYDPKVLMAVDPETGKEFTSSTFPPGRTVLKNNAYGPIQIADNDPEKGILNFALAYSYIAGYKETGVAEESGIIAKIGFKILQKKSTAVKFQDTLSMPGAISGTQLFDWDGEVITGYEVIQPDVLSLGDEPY
The following applies: both partners purified.

By stoichiometry N is commonly meant a count of units in the complex or per binding partner.

As for “C. thermocellum ScaC2 Coh (type-II cohesin of anchoring scaffoldin ScaC), expressed on its own (domain or fragment)”, the Ka in experiment [1] is 619000 M⁻¹; in experiment [3], above 1e+09 M⁻¹; in experiment [6], 1.2e+06 M⁻¹. The dH in experiment [1] is -36.9 kJ/mol; in experiment [2], -36.2 kJ/mol; in experiment [3] it was -51.8 kJ/mol; in experiment [4], -43.6 kJ/mol; in experiment [5], -43 kJ/mol; in experiment [6], -40.8 kJ/mol. Also, the stoichiometry N amounted to 1.01 in experiment [1] and 1.02 in experiment [6].
As to “C. thermocellum ScaE6 Coh (type-II cohesin of scaffoldin ScaE) (domain or fragment)”, the Ka in experiment [2] came out at 6.96e+06 M⁻¹; in experiment [3], 1.21e+07 M⁻¹; in experiment [4], 7.17e+06 M⁻¹; in experiment [5] it was 9.16e+06 M⁻¹; in experiment [6], 1.08e+07 M⁻¹. The dH in experiment [2] was -107 kJ/mol; in experiment [3], -34.6 kJ/mol; in experiment [4] it was -54.4 kJ/mol; in experiment [5], -29 kJ/mol; in experiment [6], -72.2 kJ/mol. The stoichiometry N came to 0.99 in experiment [2]; 1 in experiment [3]; 1.01 in experiment [4]; 1.01 in experiment [5]; 1.03 in experiment [6].

B1: C. thermocellum CipB XDoc (X-module and type-II dockerin of CipB), expressed on its own (domain or fragment, Clostridium thermocellum)
chain: NNDSTDKTTVSGYISVDFDYPPESESKIKSGFNVKVAGTELSTKTDEKGYFEISGIPGDMREFTLEISKRNYLKRNVTVNGTGKLVVSTEDNPLILWAGDVERKGVQDNAINMVDVMEISKVFGTRAGDEEYVAELDLNMDGAINLFDIAIVIRHFNALPSRY
notes: CipB (ORF Cthe_1806, 2177 amino acids) of Clostridium thermocellum: X-module and C-terminal type-II dockerin (XDoc); numbers count on: the recombinant XDoc chain (X-module 1-98, Doc 99-164); also called XDocCipB; CipB type-II Doc; source: E. coli Tuner (DE3), pET21a, purified (IMAC)
B1: in experiment [7], the Ka is above 1e+09 M⁻¹.
